Biological target: the molecule itself
Experiment: crystal structure; wild-type JIP1-SH3 at 20 mg/ml; crystals in 0.1 M HEPES pH 7.5, 1-5% PEG 400, 2-2.5 M ammonium sulfate, 20 °C, hanging drop; molecular replacement with PDB 2FPE chains A-B

B1: SH3 domain of the JNK-interacting protein 1 (JIP1), wild type (domain or fragment, human)
chain: GHMEQTHRAIFRFVPRHEDELELEVDDPLLVELQAEDYWYEAYNMRTGARGVFPAYYAIEVTK
notes: N-terminal extension left on the protein after cleavage by the TEV protease; Called dimeric in the legends; The wild-type structure was solved by molecular replacement with chains A-B of PDB 2FPE; also called JIP1-SH3; JIP1-SH3(WT); not shown: His6, N-terminal, cleaved
  binding result: binds
